Test results as given in the nanobody polyreactivity screen of Harvey et al. (2022).

Test: yeast display, Sf9 membrane polyspecificity reagent, FACS + sequencing; frameworks hold sequencing errors
Outline: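 A nanobody's polyreactivity label depends on the gate it was sorted from. Yeast display cells were stained with 10% biotinylated, detergent-solubilized Sf9 membrane reagent for 1 hour at 4 °C, enriched on streptavidin microbeads and sorted by FACS. The low and high (top ~1%) gates were set on anti-HA fluorescence for expression and streptavidin fluorescence for reagent binding.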

Sequence	polyreactivity (PSR sort gate)
QVQLVESGGGVVQAGGRLRLSCAASGRILPFYAMGWYRQETGKERELVPGITTGTSTTYADSVNGRFTISRDNAKNTVYFQMHSLKPEDTAVYYCNTLVVPYTDFNTSYNVDYWGQGTQVTVSS	low polyreactivity
QVQLVESGGGVVQAGGSHRLSCAASGRTFRGNAMGWYRQAPGTERELVATITCSGGSTYYADSVKGRFTISRDNAKNTGYLQMNSLKPEDTAGYAGAVRGLHLVWVPFGYDYWRQGTQVTVSS	low polyreactivity
QVQLVESGGGVVQAGGSHRLSCAASGSIFSSDAMGWYRQAPGKEREFVAAISSSGDSTYADSVKGRFTISRDNAKNTVYLQINSLKPEDTAVYYCAVGGAGSDDYWGPGTQVTVSS	low polyreactivity
QVQLVESGGGVVQAGGSLGLSCAASGGIFAPYPMGWNRQAPGKERELAAAISSSDGSTYYADSVKGRFTISRDNAKNTVYLQMNSLKTEDTAVYYCAADYREDYGYWGQGTQVTVSS	low polyreactivity
QVQLVESGGGVVQAGGSLGLSCAASGRIFDVNAMGWYRQAPGKERELVAAITYSDGSTYYADSVKGRFTISRDIAKNTVYLQMNSLKPEDTAVYYCAATQEPVTPQPYGYWGQGTQVTVSS	low polyreactivity
QVQLVESGGGVVQAGGSLRLSCAASGFIFWLYAMGRYRQAPGKERELVATITYSDGSTYYADSVKGRFTISRDKANNTDYLQMNSLKPEDTAVYYCAAEVYYGYDYWGQGTQVTVSS	low polyreactivity
QVQLVESGGGVVQAGGSLRLSCAASGFIIARNAMGWYRQAPGKERELVAAISASGGRTYYSDSEKGRFTISRDNAKNTVYLQMNSLKPEDTAVYYCAARRDGRSGSYNYWGQGTQVTVSS	high polyreactivity
QVQLVESGGGVVQAGGSLRLSCAASGFIISYNVMVWYRQAPGKERELVAAISSSGGSTYYADSVKGRFTISRDNAKNTVYLQMNSLKPEDTAVYYCATRVSRSFRAYDYWGQRTQVTVSS	high polyreactivity
QVQLVESGGGVVQAGGSLRLSCAASGFILRAYAMGWYRQAPGKERELVAAITSATSTNYADSVKGRFTISRDNAKNTVYLQMNSLKPEDTAVYYCAADGGGGEFSYDSWGQGTQVTVSS	low polyreactivity
QVQLVESGGGVVQAGGSLRLSCAASGLIFAYAMGWYSPAPGKERELVAVISWSGGSTYYADSVKGRFTISRDNAKNTVYLQMNSLKPEDTAVYYCAADYFGNWQLAGGYWGQGTQVTVSS	low polyreactivity
QVQLVESGGGVVQAGGSLRLSCAASGRIFKSYAMGWYRPAPGKERELVASISYTGGSTYYAASVKGRFTISRDNAKNTVYLQMNRLKPEDTAVYDCAAKRVRSAGSYGYWGQGTQVTVSS	low polyreactivity
QVQLVESGGGVVQAGGSLRLSCAASGRIFRYYTMGWYRQAPGKERELVASITGSGTSTYYADSVKGRFTISRDNAKNTVYLQMNSLKPEDNAVYYCNARGFRVASHAAWYQYDYWGQGTQVTVSS	high polyreactivity
QVQLVESGGGVVQAGGSLRLSCAASGRTFPYYTMGWYRQAPGKERELVAAITRSGDSTYYADSVKGRFTISRDNAKNTVYLQMYSLKPEDTAVYYCAADIWSSDYEEFYYWGLGTQVTVSS	low polyreactivity
QVQLVESGGGVVQAGGSLRLSCAASGRTYGYNAMGWYRPAPGTERELVAAITKSGVSTYYADSVKGRFTISRDNAKNTVYLQMNSLKPEDTAVYYCAVDSYYYSMDYWGQGTQVTVSS	high polyreactivity
QVQLVESGGGVVQAGGSLRLSCAASGSIFLGNAMGWYRPAPGKERELVAAITWSGGSTYYADSVKGRFTISRDNAKNTVYLQMNSLKPEDTAVYYCNAYSYVAIRDGGDYWGQGTLVTVSS	low polyreactivity
QVQLVESGGGVVQAGGSLRLSCAASGSIFRYYTRGGYRQAPGKVRELVAAISRSGGSTYYADSVKGRFTISRDNAKNTVYLQMNSLKPEDTAVYYCAARYKRAQGYREGDYWGQGTQVTVSS	high polyreactivity

Sequence	polyreactivity (PSR sort gate)
QVQLVESGGGVVQAGGSLRLSCAASGSTFGWYALGWYRQAPGKERELVAAITSGGSTKYADSVKGRFTISRDNAKNTVVLQMNSLKTEDTAVYYCDTVRGYYSPVLVIGYYWGQGTQVTVSS	high polyreactivity
QVQLVESGGGVVQAGGSLRLSCAASGSTFLLYDMGWYRQAPGKERELVARISSGDSTNYADSVKGRFTISRDNAKNTVYLLMNSLIPEDTAVYYCAAEGGVQEFDYWGQGTQVTVSS	low polyreactivity
QVQLVESGGGVVQAGGSLRLSCAASGSTFLVNAMGWYRQAPGKERELVAAISRSTGSTYYADSVKGRFTISRDNAKNSVYLQMNSLKPEDTAVYYCAVYRHGYGYNYWGQGTQVTVSS	high polyreactivity
QVQLVESGGGVVQAGGSLRLSCAASGSTFVFYTMGWSRQAPGKEREFVASISGSGGSTYYADSVKGRFTISRDNAKNTVYLQMNSLKPEDTAVYYCAAGYPYYYWTPYYYWGQGTQVTVSS	high polyreactivity
QVQLVESGGGVVQAGGSLRLSCAASGSTFYLTVLGWYRKAPGKERELVAASSSSGGSTYYADSVKGRFTISRDNAKNTVYLQMNSLKPEDTAVYYCNKVSAFPHYSGYAYWGQGTQVPVSS	low polyreactivity
QVQLVESGGGVVQAGGSLRLSCAASGSTMGYYAMGWYRPAPGKERELVATITRSGGNTYYADSVKGRFTISRDNAKNTVYLQMNSLKPDDNAVYYCAARRLYGSQRGYWGHGTQVTVSS	high polyreactivity
QVQLVESGGGVVQAGGSLRLSCAASGSTSGIYAMGWYRQAPGKERELVAAIDTYGGSTYADSVKGRFTISRDNAKNTVYLQMNSVKPEDTAVYYCAKPFSSNSWSHGYCGQGTQVTVSS	low polyreactivity
QVQLVESGGGVVQAGGSLRLSCAASGYTFLPYAMGWYRQAPGNARELVAAITVRGGRTYDADAVKGRFTISRHNAKKTVYLQMNSLKPEDTAVYYCHTDAYRLGYDYWGPGTQVTVSS	high polyreactivity
QVQLVESGGGVVQAGGSLRLSCAASRRTFTYYDMGWYRQAPGKERELVAGITARGGSTYADSVKGRFTISRDNAKNTVYLQMNSLKPEDTAVYYCAADLYTSLDSTYVYWGQGTQVTLSS	low polyreactivity
QVQLVESGGGVVQAGGSLRLSCAATGRTFWRYAMGGYIQAPGKERELVASISVSGGTTYYAYSVKGRFTISRDHAKNTVYLQMNSLKPEDTAVYYCAARYGSIYSILYYRFVYWGQGTQVTVSS	high polyreactivity
QVQLVESGGGVVQAGGSLRLSCAAYRSIFLFKAMGWYRQATGKERELVAAINRDDSTYYADSVKGRFTISRDNAKNTVYLQMNSLKPEDTAVYYCAAPVLHASYGYGYWGQGTQVTVSS	low polyreactivity
QVQLVESGGGVVQAGGSLRLTCAASGIIFYRYSMGWYSQAPGKERELVAAISIGGGSTYYADSVKVRFTISRYNAKNTVYLEMNSLKPEDTAVYYCAADTYNYVGYNGHDYWGQGTQVTVSS	low polyreactivity
QVQLVESGGGVVQAGGSLRVSCAASGRIFAPYAMGWYRQAPGKERELVAAISWRGSSTYYADSVKGRFTISRDNAKNTVSLQMNSLKPEDTAVYYCAAPSSKYWGQGTQVTVSS	low polyreactivity
QVQLVESGGGVVQAGGTLLLICAASGSTFIVNAMVWYRQAPRKERELVAAITGSGGNTYYADSVKGRFTISRDNAKNTVYLQINTLKPEDTAVYYCAAETYYGRIYWYIRDYWGQGTQVSVSS	low polyreactivity
QVQLVESGGGVVQAGVSLRLSCAASGFTSHGYAKGWYRQAPGQERELVAAIDSVGSTYYADSVKGRFTISRDNSKNTVYLQMNSLKQEDTAVYYCAARRKRVSFYQEYDYWGQGTQVTVSS	low polyreactivity
QVQLVESGGLIVQAGRSIRLTCAASGSIFYSYPMGWYRQAPGKERELVAAIRFSRGTTYYADSVKGRFTISRDNAKNTVYLQMNSLKPEDTAVYYCAATLSSYSYLFEYDYWGQCTQVTVSS	low polyreactivity
